Measured values taken from publication PMC8510540 (2021).

What was measured:
[1] = molecular target: HIV-1_(YU-2) gp140 trimer (HIV-1 YU-2); assay: BLI; kinetic
[2] = molecular target: HIV-1_(YU-2) gp140 trimer (HIV-1 YU-2); assay: BLI; equilibrium

Row | Binder | Kd [1] | Kd [2]
1 | IgG1 b12 EFTAE Fc variant (antibody, V domains shown) VH: QVQLVQSGAEVKKPGASVKVSCQASGYRFSNFVIHWVRQAPGQRFEWMGWINPYNGNKEFSAKFQDRVTFTADTSANTAYMELRSLRSADTAVYYCARVGPYSWDDSPQDNYYMDVWGKGTTVIVSS VL: EIVLTQSPGTLSLSPGERATFSCRSSHSIRSRRVAWYQHKPGQAPRLVIHGVSNRASGISDRFSGSGSGTDFTLTITRVEPEDFALYYCQVYGASSYTFGQGTKLERK | 2.78 nM | 1.93 nM
2 | IgG1 b12 (unmodified Fc) (antibody, V domains shown) VH: QVQLVQSGAEVKKPGASVKVSCQASGYRFSNFVIHWVRQAPGQRFEWMGWINPYNGNKEFSAKFQDRVTFTADTSANTAYMELRSLRSADTAVYYCARVGPYSWDDSPQDNYYMDVWGKGTTVIVSS VL: EIVLTQSPGTLSLSPGERATFSCRSSHSIRSRRVAWYQHKPGQAPRLVIHGVSNRASGISDRFSGSGSGTDFTLTITRVEPEDFALYYCQVYGASSYTFGQGTKLERK | 1.72 nM | 2.18 nM
3 | IgG1 b12 KA Fc variant (antibody, V domains shown) VH: QVQLVQSGAEVKKPGASVKVSCQASGYRFSNFVIHWVRQAPGQRFEWMGWINPYNGNKEFSAKFQDRVTFTADTSANTAYMELRSLRSADTAVYYCARVGPYSWDDSPQDNYYMDVWGKGTTVIVSS VL: EIVLTQSPGTLSLSPGERATFSCRSSHSIRSRRVAWYQHKPGQAPRLVIHGVSNRASGISDRFSGSGSGTDFTLTITRVEPEDFALYYCQVYGASSYTFGQGTKLERK | 2.56 nM | 2.95 nM
4 | IgG1 b12 EG Fc variant (antibody, V domains shown) VH: QVQLVQSGAEVKKPGASVKVSCQASGYRFSNFVIHWVRQAPGQRFEWMGWINPYNGNKEFSAKFQDRVTFTADTSANTAYMELRSLRSADTAVYYCARVGPYSWDDSPQDNYYMDVWGKGTTVIVSS VL: EIVLTQSPGTLSLSPGERATFSCRSSHSIRSRRVAWYQHKPGQAPRLVIHGVSNRASGISDRFSGSGSGTDFTLTITRVEPEDFALYYCQVYGASSYTFGQGTKLERK | 2.26 nM | 0.9 nM
5 | IgG1 b12 LALA Fc variant (antibody, V domains shown) VH: QVQLVQSGAEVKKPGASVKVSCQASGYRFSNFVIHWVRQAPGQRFEWMGWINPYNGNKEFSAKFQDRVTFTADTSANTAYMELRSLRSADTAVYYCARVGPYSWDDSPQDNYYMDVWGKGTTVIVSS VL: EIVLTQSPGTLSLSPGERATFSCRSSHSIRSRRVAWYQHKPGQAPRLVIHGVSNRASGISDRFSGSGSGTDFTLTITRVEPEDFALYYCQVYGASSYTFGQGTKLERK | 2.06 nM | 2.04 nM
